Laboratory results reported in the supplement of paper PMC9170038.

Test system: MS2 coat protein
Assay: apparent KD of MS2 coat protein; designed switch direction (-1 OFF switch, 1 ON switch): -1; higher = weaker reporter binding
In short: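 For each design, the apparent KD is the median over clusters of curves fitted to normalised cluster fluorescence. Clusters held RNA switches with common flanks, transcribed on Illumina chips by stalled E. coli RNA polymerase. These were titrated with SNAP-549-labelled MS2 coat protein, doubling from 0.7 or 1.5 nM to 3 µM, without input, with 200 uM small-molecule ligand, or with an oligonucleotide input.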

[1] = Eterna round: R95, input ligand: FMN 200 uM
[2] = Eterna round: R95, input ligand: microRNA oligo, concentration not stated
[3] = Eterna round: R95, input ligand: none

Sequence	apparent KD of MS2 coat protein (input ligand: FMN 200 uM)	apparent KD of MS2 coat protein (input ligand: none)	apparent KD of MS2 coat protein [1]	apparent KD of MS2 coat protein [2]	apparent KD of MS2 coat protein [3]
GCAUUUGUAGGAUAUACAUGAGGAUCACCCAUGUCGAGACGUGCAAGGCUUCCCAACUGUAGAAGGACGCGGCC [Eternabot (L1) Solution 61] (Eterna round: R97, puzzle: Exclusion 3)	0.0308 µM	0.0274 µM	–	–	–
GCCAGAGCAGGAUAUUCAAUAUCACACAUGAGGAUCACCCAUGUCCAGCGAAAGCUGGAGGGAGAAGGGCUCUGGC [Fiskers Ex 5 - 12] (puzzle: Exclusion 5)	–	–	0.0188 µM	0.0614 µM	0.0882 µM
GCCAGAGCAGGAUAUUCAGUAUCACACAUGAGGAUCACCCAUGUCCAGCGAAAGCUGGAGGGAGAAGGGCUCUGGC [Fiskers Ex 5 - 13] (puzzle: Exclusion 5)	–	–	0.0408 µM	0.108 µM	0.298 µM
GCCAGAGCAGGAUAUUGAUAAAUUCACAUGAGGAUCACCCAUGUCCAGCGAAAGCUGGAACGAGAAGGGCUCUGGC [Mat - Exclusion 5 - Eli mod - D87] (puzzle: Exclusion 5)	–	–	0.0117 µM	0.0133 µM	0.0137 µM
GCCAGUUUUGUGAGGAUAUCGUGCCGUUAGCGGCAUGAGAAGGCACAUGAGGAUCACCCAUGUGUGCAUCCGAG [Eternabot (L1) Solution 91] (Eterna round: R97, puzzle: Brourd's mod of Exclusion 4)	0.157 µM	0.0284 µM	–	–	–
GCCCAGAGAGGAUAUACAUGAGGAUCACCCAUGUAGAGCUUGUCUGCAGUGAAAGGAUGUAGAAGGCUCGGGCA [Racearza] (Eterna round: R97, puzzle: Exclusion 3)	0.0426 µM	0.0268 µM	–	–	–
GCCCAGCUAGGAUAUCGCACUGCAGACAUGAGGAUCACCCAUGUGAUGAGGUCUGAAUCCCGAGAAGGAGCAUGGA [Enlain] (puzzle: Exclusion 5)	–	–	–	0.0158 µM	–
GCCCGGGCAGGAUAUACAAUGAUCGUGAGAAAUCGUGAUCGACAUGAGGAUCACCCAUGUAGAAGGGCCCGGGC [-34.5, -32.3 kcal, A 28% 2] (Eterna round: R97, puzzle: Exclusion 2)	0.116 µM	0.0505 µM	–	–	–
GCCGAAAAAGUGAGGAUAUACCUAUGGAAACAUAGGUAGAAGGCACAUGAGGAUCACCCAUGUAUCCUAACGGC [Mat - Exclusion 4 - Eli Mod - D28] (Eterna round: R97, puzzle: Brourd's mod of Exclusion 4)	0.268 µM	0.0285 µM	–	–	–
GCCGAUUAAGUGAGGAUAUACCUAUGGAAACAUAGGUAGAAGGCACAUGAGGAUCACCCAUGUUCCUAUACGGC [Fiskers BMX 4 - 5] (puzzle: Brourd's mod of Exclusion 4)	–	–	0.0364 µM	0.0123 µM	0.011 µM
GCCGAUUAAGUGAGGAUAUACCUAUGGAUACAUAGGUAGAAGGUACAUGAGGAUCACCCAUGUUCCUCAACGGC [Fiskers BMX 4 - 9] (puzzle: Brourd's mod of Exclusion 4)	–	–	–	0.00893 µM	–
GCCGCCGCCUUGGCGGCGGACAUGAGGAUCACCCAUGUCAAGCUUUUGCUCGUCUUAUUUGGCCGGCUUGCCGGCCA [Olib_1] (Eterna round: R97, puzzle: Sensor, turn-off variant 1)	0.0245 µM	0.0261 µM	–	–	–
GCCGUACAAGGAUAUCUAUCGCAAAACAUGAGGAUCACCCAUGUGUAUCCUAACCGGCGAAGAGAAGGUGUAGUUA [Letelabe] (Eterna round: R97, puzzle: Exclusion 5)	0.0244 µM	0.0181 µM	–	–	–
